In paper PMC10950542 (Nature structural & molecular biology, 2024):
Positions count from the first letter of the chain named. Numbers in names are those of the source. Like-named read-outs stand apart in the source and are kept apart here.

T1: T4 clamp loader (gp44/gp62), wild type;T4 sliding clamp gp45 (bacteriophage T4;bacteriophage T4, UniProt P04526;P04527;P04525 1-319;1-187;1-228, |)
T1 sequence 1: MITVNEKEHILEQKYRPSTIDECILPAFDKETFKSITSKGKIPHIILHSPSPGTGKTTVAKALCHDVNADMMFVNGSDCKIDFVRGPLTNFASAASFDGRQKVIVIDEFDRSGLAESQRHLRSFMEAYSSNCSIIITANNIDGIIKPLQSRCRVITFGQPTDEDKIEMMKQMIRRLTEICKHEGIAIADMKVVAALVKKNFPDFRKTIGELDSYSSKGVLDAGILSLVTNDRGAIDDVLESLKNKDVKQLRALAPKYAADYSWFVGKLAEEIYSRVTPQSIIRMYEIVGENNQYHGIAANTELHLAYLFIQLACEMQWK
T1 sequence 2: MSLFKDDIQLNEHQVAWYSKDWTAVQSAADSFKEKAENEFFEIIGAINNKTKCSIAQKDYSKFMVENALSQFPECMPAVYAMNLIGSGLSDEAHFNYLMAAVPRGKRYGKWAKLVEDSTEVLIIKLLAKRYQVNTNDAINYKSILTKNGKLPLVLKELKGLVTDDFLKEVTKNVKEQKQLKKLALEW
T1 sequence 3: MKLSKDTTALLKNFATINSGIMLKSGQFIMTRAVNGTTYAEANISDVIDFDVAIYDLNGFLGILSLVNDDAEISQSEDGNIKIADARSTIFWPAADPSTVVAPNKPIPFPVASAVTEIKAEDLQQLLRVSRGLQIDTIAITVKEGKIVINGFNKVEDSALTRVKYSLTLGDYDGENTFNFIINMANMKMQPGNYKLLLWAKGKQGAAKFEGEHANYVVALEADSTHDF

T2: T4 clamp loader D110C/G143R;T4 sliding clamp gp45 (bacteriophage T4;bacteriophage T4, UniProt P04526;P04527;P04525 1-319;1-187;1-228, D110C;G143R|)
T2 sequence 1: T1 sequence 1 with D110C, G143R
T2 sequence 2: T1 sequence 2
T2 sequence 3: T1 sequence 3

T3: T4 clamp loader D110C/P50K (P50K*);T4 sliding clamp gp45 (bacteriophage T4;bacteriophage T4, UniProt P04526;P04527;P04525 1-319;1-187;1-228, P50K;D110C|)
T3 sequence 1: T1 sequence 1 with P50K, D110C
T3 sequence 2: T1 sequence 2
T3 sequence 3: T1 sequence 3

B1: TAMRA primer-template DNA (dsDNA)
DNA 1: TTTTTTTTTTTTATGTACTCGTAGTGTCTG
DNA 2: GCAGACACTACGAGTACATA
B2: T4 bacteriophage clamp-loader ATPase subunit gp44 (wild type) (natural protein)
chain: T1 sequence 1
B3: T4 bacteriophage clamp-loader clasp subunit gp62 (natural protein)
chain: T1 sequence 2
B4: T4 bacteriophage clamp-loader ATPase subunit gp44 D110C (natural protein)
chain: T1 sequence 1 with D110C
B5: T4 bacteriophage sliding clamp (gp45) (natural protein)
chain: T1 sequence 3

Legend:
[1] = target: T1, T4 clamp loader (gp44/gp62), wild …; test: fluorescence anisotropy
[2] = target: T2, T4 clamp loader D110C/G143R;T4 sliding …; test: fluorescence anisotropy
[3] = target: T3, T4 clamp loader D110C/P50K (P50K*);T4 …; test: fluorescence anisotropy
crystal structure [4] = target: the molecule itself; test: crystal structure
[5] = target: B2; test: cryo-EM structure
[6] = target: B5; test: cryo-EM structure
[7] = target: B4; test: crystal structure
crystal structure [8] = target: the molecule itself; test: crystal structure; remark: listed apart in the source

B1
Kd [1]: ~40 nM | binding result [2]: binds | binding result [3]: binds

B2
binding result (crystal structure [4]): binds

B3
binding result [5]: binds | binding result [6]: binds | binding result [7]: binds

B4
binding result (crystal structure [8]): binds

B5
binding result (crystal structure [8]): binds
